Values of other authors, collected in patent US5397694A, “Protease inhibitor” (Merck Patent GmbH, priority 1989, dated 1995).

B1: Eglin C: Eglin variant with tyrosine where Eglin B has histidine (protein, UniProt P01051 1-70, looked up)
Eglin C: TEFGSELKSFPEVVGKTVDQAREYFTLHYPQYDVYFLPEGSPVTLDLRYNRVRVFYNPGTNVVNHVPHVG
**Q.** For B1, which “isoelectric point (pI), published report” value is on record?
**A.** 6.45
